The results in this text go back to patent publication US20230220016A1.

This assay addresses 434cI-SH2 (SH2 domain of ABL1 kinase fused to 434 cI repressor) (434 phage) (UniProt P16117). Description: cell-based or functional assay.

As to “RpoZ-HA4 (monobody HA4 fused to RpoZ) (from UniProt P0A800 1-91) (designed binder)”, the transcriptional activation, bacterial 2-hybrid, sensitized promoter PlacZ-opt is 200 fold and the transcriptional activation, bacterial 2-hybrid, wild type PlacZ promoter was determined as 17 fold.
